Assay results reported in the nanobody polyreactivity screen of Harvey et al. (2022).

Experiment: yeast display, Sf9 membrane polyspecificity reagent, FACS + sequencing; frameworks hold sequencing errors
Outline: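 Nanobodies came from a synthetic yeast display library in Saccharomyces cerevisiae BJ5465, induced with galactose for 36–48 hours and stained for 1 hour at 4 °C with 10% biotinylated, detergent-solubilized Sf9 membrane reagent. Cells were enriched on streptavidin microbeads and then FACS-sorted, with low and high (top ~1%) gates set on anti-HA fluorescence for expression and streptavidin fluorescence for reagent binding. Each polyreactivity label reflects the gate a clone came from. Genes were amplified by colony PCR, sequenced by MiSeq 2 × 250 and filtered by CDR length.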

Sequence	polyreactivity (PSR sort gate)
QVQLVESGGGLVQAGGSLRLSCAASGSIFSYYVMGWYRQAPGKERELVARINWSSTSTYYADSVKGRFTISRDNAKNTVYLQMHSLKPEDTAVYYCAAAKRYGRYYEYDYWGQGTQVTVSS	high polyreactivity
QVQLVESGGGLVQAGGSLRLSCAASGSIFTDNAMGWYKQAPGKERELVAVISSGGRTYYADSVKGRFTISRDNAKNTVYLQMNSLKPEDTAVYYCKGQKRYPFSGIEDYWGQGTQVNVSS	high polyreactivity
QVQLVESGGGLVQAGGSLRLSCAASGSIFTDNAMGWYRQAPGKERELVAAITSNGGSTYYADSVKGRFTISRDNAKNTVYLQMNSLKPEDTAVYYCAADSLYREDDYWGQGTQVTVSS	low polyreactivity
QVQLVESGGGLVQAGGSLRLSCAASGSIFTFYAMGWYRQAPGKERELVATINRIGGNTYYADSVKGRFTISRDNAKNTVYLQMNSLKPEDTAVYYCAKLYGSANGYDYWGQGTQVSVSS	low polyreactivity
QVQLVESGGGLVQAGGSLRLSCAASGSIFTFYAMGWYRQAPGKERELVATITWLGGSTYADAVKGRFTISRDNAKNTVYLQMNSLKPEDTAVYYCNADYRSYWYKLDYWGQGTQVTVSS	high polyreactivity
QVQLVESGGGLVQAGGSLRLSCAASGSIFTGYAMGWYRQAPGKERELVAAIRTRGGSTYYADSVKGRFTISRDNAKNTVYLQMNSLKPEDTAVYYCAKRYYGWYGNFDYWGQGTLVTVSS	high polyreactivity
QVQLVESGGGLVQAGGSLRLSCAASGSIFTGYAMGWYRQARGKESELVAAIDDSGDSTYYADSVKVRFTISRDNATNTVYLQMNSLKPEDTAVYYSKAEYRVNKEYDYWGQGTQVTVSS	low polyreactivity
QVQLVESGGGLVQAGGSLRLSCAASGSIFTGYTMGRYRQATGKERELVAAITWNGGSTYYADSVKGRFTISRDNAKNTVYLQMNSLKPEDTAVYYCAAVPYTPSPYTYGYWGQGTQVTVSS	high polyreactivity
QVQLVESGGGLVQAGGSLRLSCAASGSIFTHNAMGWSRQAPGKERELVATISYGGGRTYYADSVKGRFTISRDNAKNTVYLQMNSLKPEDTAVYYCNALRGGPFRWHGYYYWGQGTQVTVSS	low polyreactivity
QVQLVESGGGLVQAGGSLRLSCAASGSIFTHNAMGWYRQAHGKERELVAAISSGGSTNYADSVKGRFTISRDNAKNTVYLQMNSLKPEDTAVYYCAKSIDGWYWRRRRYDYWGQGTQVTVSS	low polyreactivity
QVQLVESGGGLVQAGGSLRLSCAASGSIFTHNAMGWYRQAPGKERELVATISYGGGRTYYADSVKGRFTISRDNAKNTVYLQMNSLKPEDTAVYYCAADVYWYAYVWRKYGYWGQGTQVTVSS	low polyreactivity
QVQLVESGGGLVQAGGSLRLSCAASGSIFTHYAMGWYRQAPGKERELVAAISRRGGSTYYADSVKGRFTISRDNAKNTVYLQMNSLKPEDTAVYYCAVRLYLEMDYWGQGTQVTVSS	high polyreactivity
QVQLVESGGGLVQAGGSLRLSCAASGSIFTHYAMGWYRQAPGKERELVAAITWSGGSTYYADSVKGRFTISRDNAKYTVYLQMNSLKPEDTAVYYCNVAWVGVSLVYGPFEYDYWGQGTQVTVSS	high polyreactivity
QVQLVESGGGLVQAGGSLRLSCAASGSIFTIYAMGWYRQAPGKERELVAAINRGDGTNYADSVKGRFTISRDNAKNTVYLQMNSLKPEDTAVYYCAAKAYTNYDRQVNLRRYYWGQGTQVTVSS	high polyreactivity
QVQLVESGGGLVQAGGSLRLSCAASGSIFTKYAMGWYRQAPGKERELVAAISKTGGSTYYADSVKGRFTISRDTAKNTVYLQMNSLKPEDTAVYYCNAAGGYSVYKRGRDYWGQGTQVTGSS	high polyreactivity
QVQLVESGGGLVQAGGSLRLSCAASGSIFTKYVMGWYRQAPGKERELVAAITYRGGSTYYADSVKGRFTISRDNAKNTVYLQMNSLKPEDTAVYDCAAEYYRYKYTAYRTDDYWGQGTQVTVSS	high polyreactivity
QVQLVESGGGLVQAGGSLRLSCAASGSIFTLYAIGWSRQAPGKERELVAAISRRGGSTYYADSVKGRFTISRDNAKNTVYLQMNSLKPEDTAVYYCNAYRSNYLIGSSSYGLDYWGHGTQVTVSS	high polyreactivity
QVQLVESGGGLVQAGGSLRLSCAASGSIFTLYAMGWYRQAPGKERELVAAIDSGGNTNYADSVKGRFTISRDNAKNTVYLQMNSLKPEDTAVYYCAKRHATEFDYWGQGTQVTVSS	low polyreactivity
QVQLVESGGGLVQAGGSLRLSCAASGSIFTLYAMGWYRQAPGKERELVAAITWTGGSTYYADSVKGRFTISRDNAKNTVYLQMNSLKPEDTAVYYCATDGYWQSNGAFYYVARHGGYWGQGTQVTVSS	low polyreactivity
QVQLVESGGGLVQAGGSLRLSCAASGSIFTLYVMGWYRQAPGKERELVAAITWSGGSTYYADSVKGRFTISRDNAKNTVYLQMNSLKTEDPAVYYCNADVRWDSQDYYYWGQGTQVTVSS	low polyreactivity
QVQLVESGGGLVQAGGSLRLSCAASGSIFTNAMGWYIQAPGKERELVAAISSSGGSTYYADSVKGRFTISRDNANNTVYLQMNSLKPEDTAVYYCSADHFGGRDYWGQGTQVTVSS	low polyreactivity

Sequence	polyreactivity (PSR sort gate)
QVQLVESGGGLVQAGGSLRLSCAASGSIFTNYAMGWYRQAPGKERELVATITYYADSVKGRFTISRDNAKNTVYLQMNSLKPVDTAVYYCAAVRSGPGYDYWGQGTQVTVSS	low polyreactivity
QVQLVESGGGLVQAGGSLRLSCAASGSIFTPNAMGWYRQAPGKERELVAAISQSGGSTYYADSVKGRFTISRDNAMNTVYLQMNSLKPEDTAVYYCGASVRHRGYDYWGQGTQVTVSS	high polyreactivity
QVQLVESGGGLVQAGGSLRLSCAASGSIFTPNAMGWYRQAPGKERELVAAISSSSDRTYYADSVKGRFTLSRDNAKNTVYLQMNSLKPEDTAVYYCAAYAQKRYYWGQGTQVTVSS	high polyreactivity
QVQLVESGGGLVQAGGSLRLSCAASGSIFTPNTMGWYRQAPGKEREFVAAINTSGSTNYADSVKGRFTISRDNAKNTVYLQLNSLKPEDTAVYYCAAGIVVTGYDYWGQGTQVTVSS	low polyreactivity
QVQLVESGGGLVQAGGSLRLSCAASGSIFTPYAMGWYRQAPAKERELVAANTSSGGSTNYPDSVKGRFTISRDKAKSTVYLQMNSLKPEDTAVYYCAADQDLGYPLFDYWGQRTQVTVSS	low polyreactivity
QVQLVESGGGLVQAGGSLRLSCAASGSIFTPYAMGWYRQAPGKERELVAAISRSGGSTYYADSVKGRFTISRDNAKNTVYLQMNSLKPEDTAVYYCAVVVYDIYGYESDYWGQGTQVTVSS	low polyreactivity
QVQLVESGGGLVQAGGSLRLSCAASGSIFTPYAMGWYRQAPGKERELVATISWSGGRTYYADSVKGRFTISRDNAMYTVYLQMYSLKPEDTAVYYCAARGYSSEYDYWGQGTQVTVSS	high polyreactivity
QVQLVESGGGLVQAGGSLRLSCAASGSIFTPYVMGWYRQAPGKERELVAAISKRGTRTYYADSVTGRFTISRDNAKNTVYFQMNSLKPEDTAVYYCNAAVDYGSEHDYWGQGTQVTVSS	high polyreactivity
QVQLVESGGGLVQAGGSLRLSCAASGSIFTQYAMGWYREATGKERELVAAITSGGSTYADSVKGRFTISRDNANNTVYLQMNSLKPEDTAVYYCATQYSYRGVTFYYWGQGTQVTVSS	low polyreactivity
QVQLVESGGGLVQAGGSLRLSCAASGSIFTRNAMGWYRQAPGKERELVAAISRGGGTNYADSVKGRFTISRDNAKNTVYLQMNSLKPEDTAVYYCAARVGYPYPAGYDYWGQGTQVTVSS	high polyreactivity
QVQLVESGGGLVQAGGSLRLSCAASGSIFTRNAMGWYRQAPGKERELVAAISRGGGTNYADSVKGRFTISRDNAKNTVYLQMNSLKPEDTAVYYCAKGWLPNGIPTYFRPYGLDYWGQGTQVTVSS	high polyreactivity
QVQLVESGGGLVQAGGSLRLSCAASGSIFTRYTMGWCRQAPGKERELVAVISDSSGRTYYADTVKGRFTISRDNGKNTDYLQMNSLKPEDPAVYYCAAEYSDIYEYWGQGTQVTVSS	low polyreactivity
QVQLVESGGGLVQAGGSLRLSCAASGSIFTRYTMGWYRQAPGKERELVAVISDSSGRTYYADSVKGRFTISRDNGKNTVYLQMNSLKPEDTAVYYCAAEYSDIYEYWGQGTQVTVSS	low polyreactivity
QVQLVESGGGLVQAGGSLRLSCAASGSIFTSYAMGWSRQAPGKERELVAAITSGGSTNYADSVKGRFTISRDNAKNTVYLQMNSLKPEDTAVYYCNAKWYWYLTRDAYRYRYTYDYWGQGTQVTVSS	low polyreactivity
QVQLVESGGGLVQAGGSLRLSCAASGSIFTSYAMGWYRQAPGKERELVAAITSTGGSTYYADSVKGRFTISRENAKNTVYLQMNSLKPEDTAVYYCNADGGTPYDYWGQGTQVTVSS	low polyreactivity
QVQLVESGGGLVQAGGSLRLSCAASGSIFTTNAMGWYRQAPGKERELVAAISSRGTSTYYADSVKGRFTISRDNAKNTVYLQMNSLKPEDTAVYYCPNPYGYWGQGTQVTVSS	high polyreactivity
QVQLVESGGGLVQAGGSLRLSCAASGSIFTTNAMGWYRQAPGKERELVARIDRAGSTYYADSVKGRFTISRDNAKNTVYLQMNSLKPVDTAVYYCAVEAVLSRPYATKFDYWGQGTQVNVSS	low polyreactivity
QVQLVESGGGLVQAGGSLRLSCAASGSIFTTNAMGWYRQAPGKERELVSAISSRGGSTYYADSVKGRFTISRDNAKNTVYLQMNSLKPEDTAVYYCAARYRWPIPGTQYEYWGQGTQVTVSS	low polyreactivity
QVQLVESGGGLVQAGGSLRLSCAASGSIFTVYAMGWYRQAPGKERELVAAIRRTGSRTYYADSVKGRFTISRDNAKNTVYLQMNSLKPEDTAVYYCAADGWYDRRSVRLNYWGQGTQVTVSS	high polyreactivity
QVQLVESGGGLVQAGGSLRLSCAASGSIFTVYTMGWYRQAPGKERELVAAINSRGGTTYYADSVKGRFTISRDNAKNTVYLQMNSLKPEDTAVYYCAAKQRPKSYGPGHYYWGQGTQVTVSS	high polyreactivity
